The target of the test is T1, HLA-A*02:01 (human).
T1 construct: monomers captured on streptavidin plates; also called MHC class I
As to the kind of experiment: UV peptide exchange ELISA. A digest of the protocol: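 Peptide-MHC complexes formed by UV-triggered exchange of a cleavable peptide for the test peptide, with stabilised complexes indicating binding. Exchange products diluted 100 fold onto streptavidin-coated wells, 1h at 37° C.; HRP anti-β2m (2 μg/ml), TMB, absorbance at 450 nm gives exchange yield.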
Background: In an ELISA, binding on a coated surface is turned into a signal by an enzyme label.

Consider FLYDEIEAEVNL, for which the peptide exchange yield lay in the range of 50 to 75%.

For the molecule KLVDRTWTL (probably a misprint of W as VV), the peptide exchange yield was in the range of 50 to 75%.

Take TLYDIAHTPGV: the peptide exchange yield was ≥ 75%.

On to TLAPGEVLRSV, for which the peptide exchange yield lay within 50 to 75%.

SVAEGRALMSV yielded a peptide exchange yield of 50 to 75%.

On to KLYESLLPFA, for which the peptide exchange yield was 50 to 75%.

LLADLLHNV returned a peptide exchange yield of 50 to 75%.

Turning to SLLPLDDIVRV, the peptide exchange yield was in the range of 50 to 75%.

For ALWDIETGQQTTT, the peptide exchange yield fell in the range of 50 to 75%.

As for SLWQDIPDV, the peptide exchange yield was in the range of 50 to 75%.

ALWENPESGEL showed a peptide exchange yield of 20 to 50%.

Molecule LLWDVPAPSL gave a peptide exchange yield of 50 to 75%.

As to LLLAHIIAL, the peptide exchange yield lay in the range of 20 to 50%.

Regarding SLLNQDLHWSL, the peptide exchange yield was ≥ 75%.

In the case of ALIENLTHQI, the peptide exchange yield lay within 20 to 50%.

As to YQIPRTFTL, the peptide exchange yield lay in the range of 20 to 50%.

ALQETPTSV registered a peptide exchange yield of 20 to 50%.

GLLDLPFRVGV: the peptide exchange yield is ≥ 75%.

With YLEELPEKLKL, the peptide exchange yield is 50 to 75%.

In the case of WLLPYNGVTV, the peptide exchange yield lay within 50 to 75%.

In turn, VTVPPGPSL showed a peptide exchange yield of 20 to 50%.

Consider SLMPHIPGL, for which the peptide exchange yield was in the range of 50 to 75%.

VMIAGKVAVV came in with a peptide exchange yield of 50 to 75%.

Consider FLTDLEDLTL, for which the peptide exchange yield lay in the range of 50 to 75%.

With KLYDDMIRL, the peptide exchange yield lay within 50 to 75%.

For the molecule LLADELITV, the peptide exchange yield fell in the range of 50 to 75%.

AMLENASDIKL had a peptide exchange yield of 50 to 75%.

Take YTLPIASSIRL: the peptide exchange yield is 50 to 75%.

Molecule MLLTKLPTI came in with a peptide exchange yield of 50 to 75%.

For the molecule VMYADIGGMDI, the peptide exchange yield is 50 to 75%.

As to ALFDAQAQV, the peptide exchange yield was in the range of 50 to 75%.

TLWYRSPEV returned a peptide exchange yield of 20 to 50%.

Regarding VLSSLEINI, the peptide exchange yield is 20 to 50%.

In turn, GLLPTPITQQASL displayed a peptide exchange yield of 50 to 75%.

For FLLEPGNLEV, the peptide exchange yield was ≥ 75%.

RLAEVGQYEQV: the peptide exchange yield was 20 to 50%.

SMLEPVPEL registered a peptide exchange yield of 50 to 75%.

Turning to YVLEGLKSV, the peptide exchange yield was in the range of 50 to 75%.

On to YLQLTQSEL, for which the peptide exchange yield lay in the range of 50 to 75%.

VLLQKIVSA: the peptide exchange yield lay within 50 to 75%.

TVTNAVVTV showed a peptide exchange yield of 50 to 75%.

For the molecule GLLENIPRV, the peptide exchange yield is 50 to 75%.

Molecule TLDITPHTV displayed a peptide exchange yield of 50 to 75%.

On to VLLEAGEGLVTI, for which the peptide exchange yield was in the range of 50 to 75%.

In turn, LLMPSSEDLLL gave a peptide exchange yield of 50 to 75%.

Turning to LAVHPSGVAL, the peptide exchange yield fell in the range of 10 to 20%.

As to RVWDISTVSSV, the peptide exchange yield is 50 to 75%.

VIADGGIQNV displayed a peptide exchange yield of 20 to 50%.

ILDPISSGFLL: the peptide exchange yield was in the range of 20 to 50%.

(Values after US20170037110A1 (IMMATICS BIOTECHNOLOGIES, published 2017).)
